Test results reported in patent publication US20250205324A1, “ANTIGENIC PEPTIDES FOR PREVENTION AND TREATMENT OF CANCER” (ENTEROME S.A., priority 2022, published 2025).
“Also recorded” adds a separate entry of the source. Like-named read-outs stand apart in the source and are kept apart here. Where no end group is shown, it is not given here.

Assays:
[1] = molecular target: T1, HLA-A*0201 (Homo sapiens, UniProt P04439, D140Y/D185E/D98H/E176V/E277Q/G131W/G231S/I119V/I121R/I166T/I218V/L300P/L318F/N151K/N90K/P208A/P217A/Q86G/Q94H/R138H/R169H/T345S); assay: Affinity of the peptide to T2 cell line (HLA-A*0201 binding, FACS with anti-HLA-A2 antibody); conditions: T2 cells
T1 construct: human tumoral cell T2 which expresses the HLA-A*0201 molecule; endogenous in cells; host or cells: T2 cells (human, TAP1/2 negative)
Protocol: (§1) T2 cells (5·10^4 cells per well) are incubated with decreasing concentrations of peptides from 100 μM to 0.1 μM (4 points: 100 μM, 10 μM, 1 μM, 0.1 μM) in serum-free medium (TexMacs) supplemented with 100 ng/μl of 2 Microglobulin at 37° C. for 16 hours.
The analysis is achieved by FACS (Macsquant analyzer 10 or a Macsquant analyzer 16-Miltenyi).

[2] = tested on: HHD DR1 HLA-A2 transgenic mice; assay: ELISPOT-IFNγ assay on splenocytes of vaccinated HLA-A2 transgenic mice; assay type: in vivo, mouse; conditions: for immunogenicity: T cell response in ELISPOT-IFNγ: 30 nmol peptide + UCP2 helper in Montanide ISA 51 VG s.c., prime d0, boost d14, spleen d21, restimulation 10 μM; for cross-reactivity of induced T cells with the corresponding human peptide in ELISPOT-IFNγ: prime d0, boost d14, spleen d21, challenge with human peptide 10 μM
Protocol: Briefly, HLA-A2 HHD-DR1 humanized mice (C57BL/6JB2mtm1UnclAb−/−Tg(HLA-DRA, HLA-DRB1*0101)#GjhTg(HLA-A/H2-D/B2M)1 Bpe) were assigned randomly (based on mouse sex and age) to experimental groups, wherein each group was immunized with a specific vaccination peptide (vacc-pAg) combined to a common helper peptide (h-pAg UCP2; sequence: […]; SEQ ID NO: 39) (as outlined in Table 6 below).
The peptide formulation to be injected (emulsion) was prepared freshly on each day of injection and for each group. A mix for 10 animals was prepared using 2 mL luer lock syringes (4606701 V, B BRAUN) and luer lock female-female Combifix® Adapter (B. Braun, 5206634): 500 μL of peptide mixture in syringe 1 was emulsified with 500 μL of Montanide ISA 51 VG (Seppic) contained in syringe 2. The emulsification process was performed first by pushing the peptide mixture contained in syringe 1 into syringe 2 (containing Montanide) at very low speed. Transfer of the mixture from one syringe to another was then performed at very low speed during 6 cycles (one cycle corresponding to one passage from one syringe to another), and secondly at high speed, as fast as possible, for 1 minute. Each emulsion was prepared in excess to compensate for the dead volumes at injection.
The animals were immunized on day 0 (d0) with a prime injection, and on d14 with a boost injection. Each mouse was injected s.c. on the loose skin over the neck of the animals with 100 μL of an oil-based emulsion that contained: • 30 nmol of vacc-pAg and 30 or 100 μg of UCP2 helper peptide in 50 μL of a dedicated final solvent • Montanide ISA 51 VG (Seppic) added at 1:1 (v:v) ratio (50 μL per mouse).
Seven days after the boost injection (i.e. on d21), the animals were euthanized and the spleen was harvested. Splenocytes were prepared by mechanical disruption of the organ followed by 70 μm-filtering and Red blood cell lysis.
The cell suspensions were further used in an ELISPOT-IFN assay (Table 5). The cells were cultured in 200 μL of complete T cell medium. Experimental conditions (duplicates) were as follow: 2×10^5 total cells per well when cultured in presence of various pAg (10 μM) or medium-only; and 2×10^4 total cells when cultured in presence of the positive control PMA/lonomycin (PMA: Sigma P8139: 0.1 μM final; lonomycin: Sigma 10634: 1 μM final). The cultures were assessed for their capacity to secrete IFN (mouse IFN-ELISpotPLUS kit, Mabtech 3321-4APT-10), following the manufacturer's instructions (˜12-48h incubation time before performing the assay). The peptides used for restimulation are described in Table 7.
Spots were counted on a an iSpot Fluorospot Reader System (AID). Data plotting and statistical analysis were performed with the Prism-9 software (GraphPad Software Inc.).
The data were provided as a number of spots per 1·10^6 total T cells. The individual average values (obtained from the duplicates) were next used to plot the group average values. Statistical analysis for comparison (to the irrelevant peptide condition) were performed using unpaired non-parametric test (Mann Whitney) (**: p<0.01; *: p<0.05).

[3] = tested on: T2 cell lines loaded with bacterial peptide or human counterpart peptide; assay: Cytotoxic assay of peptide-specific CD8+ T cells against peptide-loaded T2 cells; assay type: cell-based
From the text: CD8+ T cells expanded per above were used to perform cytotoxic assays in presence of different ratios of target and effector cells to assess their cytotoxic capacity, using flow cytometry readout. Target cells were T2 cell lines loaded with bacterial peptide or human counterpart peptide. As a negative control T2 cells unloaded and T2 cells loaded with irrelevant peptide were employed.

[4] = molecular target: T2, HLA-A*0201 molecule expressed on human T2 cells (human); assay: T2 cell HLA-A*0201 binding assay, anti-HLA-A2-PE flow cytometry
T2 construct: surface HLA-A2 detected with anti-HLA-A2-PE (clone REA517); also called HLA-A2
Protocol: as §1, with “(5·10⁴” for “(5·10^4”, “hours. Cells are then washed two times and marked with the anti-HLA-A2 antibody coupled to PE (clone REA517, Miltenyi).” for “hours.”
For each peptide concentration, the geometric mean of the labelling associated with the peptide of interest is subtracted from background noise and reported as a percentage of the geometric mean of the HLA-A*0202 labelling obtained for the reference peptide HIV pol 589-597 at a concentration of 100 μM.

[5] = T cell clones expanded in vitro, flow cytometry readout (FIG. 18)

Molecule	Concentration of peptide that induces 20% of HLA-A2 expression [1]	also measured
AINPELLQL (listed as Homo sapiens) [KIF2C-H1]	22.55 µM	
ALIFGQLLL [TOP2A-B2]	1.79 µM	immunogenicity: T cell response in ELISPOT-IFNγ [2]: induced significant T cell responses; also recorded: strongly immunogenic; also recorded: induced strong immune responses; cross-reactivity of induced T cells with the corresponding human peptide in ELISPOT-IFNγ [2]: able to drive an effective immune response against the corresponding human peptide; also recorded: Cross-reactivity
ALNPELLAL [KIF2C-B1, ALNPELLAL]		cytotoxic capacity of peptide-specific T cells against T2 cells loaded with bacterial or human peptides [3]: have the ability to kill T2 cells loaded with bacterial or human peptides; cytotoxic capacity of peptide-specific human T cell clones against T2 cells loaded with the bacteria peptide [3]: have the capacity to kill T2 cells; cytotoxic capacity of peptide-specific human T cell clones against T2 cells loaded with the human peptide [3]: able to kill T2 cells loaded with the human
ALYDVRTIL (listed as Homo sapiens) [UBE2C-H1]	14.98 µM	
ALYDVRTILL (listed as Homo sapiens) [UBEC2-H11]	14.87 µM	
ALYSEILTV [ANKRD30A-B1]	0.05 µM	immunogenicity: T cell response in ELISPOT-IFNγ [2]: induced significant T cell responses; also recorded: strongly immunogenic; also recorded: induced strong immune responses; cross-reactivity of induced T cells with the corresponding human peptide in ELISPOT-IFNγ [2]: able to drive an effective immune response against the corresponding human peptide; also recorded: Cross-reactivity
AQIGIVAVV (listed as Homo sapiens) [OR51E2-H1]	5.68 µM	
AVIGIVAAV [OR51E2-B1]	0.7 µM	
FLYDVRTYL [UBE2C-B1]		cytotoxic capacity of peptide-specific human T cell clones against T2 cells loaded with the bacteria peptide [3, 5]: have the capacity to kill T2 cells; cytotoxic capacity of peptide-specific human T cell clones against T2 cells loaded with the human peptide [3, 5]: able to kill T2 cells loaded with the human; cytotoxic capacity of peptide-specific T cells against T2 cells loaded with bacterial or human peptides ([3]; legend of FIG. 18): have the ability to kill T2 cells loaded with bacterial or human peptides
ILLSIQSLL (listed as Homo sapiens) [UBE2C-H2]	3.27 µM	
IVWSDVTYV [MMP11-B1]	0.08 µM	
KIIGIILAV [CDH17-B1]		immunogenicity: T cell response in ELISPOT-IFNγ [2]: induced significant T cell responses; also recorded: strongly immunogenic; also recorded: induced strong immune responses; cross-reactivity of induced T cells with the corresponding human peptide in ELISPOT-IFNγ [2]: able to drive an effective immune response against the corresponding human peptide; also recorded: Cross-reactivity
KILDTVHSC (listed as Homo sapiens) [ANKRD30A-H2]	25.32 µM	
KVWSDVTPL (listed as Homo sapiens) [MMP11-H1]	0.65 µM	
LILDTVHSL [ANKRD30A-B2]	1.13 µM	
LVIGIILAV (listed as Homo sapiens) [CDH17-H1]	14.06 µM	
QMNPELLTL [KIF2C-B11]	0.909 µM	
RLQQELMTL (listed as Homo sapiens) [UBE2C-H3]	1.06 µM	
SLDQKLFQL (listed as Homo sapiens) [ANKRD30A-H3]	0.32 µM	
SLLSIQSYV [UBE2C-B2]	0.22 µM	
SLPDRILDA (listed as Homo sapiens) [CDC20-H1, reference compound]	4.57 µM	cross-reactivity of induced T cells with the corresponding human peptide in ELISPOT-IFNγ [2]: Cross-reactivity
SLPDRILTV [CDC20-B1]		cytotoxic capacity of peptide-specific T cells against T2 cells loaded with bacterial or human peptides [3]: have the ability to kill T2 cells loaded with bacterial or human peptides; cytotoxic capacity of peptide-specific human T cell clones against T2 cells loaded with the bacteria peptide [3]: have the capacity to kill T2 cells; cytotoxic capacity of peptide-specific human T cell clones against T2 cells loaded with the human peptide [3]: able to kill T2 cells loaded with the human
TLDQKLFMV [ANKRD30A-B3]	0.14 µM	
VLNPELLML [KIF2C-B13]	0.189 µM	
VMNPELLLL [KIF2C-B12]	0.258 µM	
YLILEYAPL (listed as Homo sapiens) [AURKA-H1]	12.2 µM	
YLYDVRTAL [UBE2C-B11, b339 prints …]	0.87 µM	
YLSGANLFV (also called CEACAM-B1; ENT188_B1) [CEACAM5-B1]		concentration of peptide that induces 20% of HLA-A2 expression [4]: 0.5 µM; in vitro binding affinity (relative affinity, normalized against HIV-pol) [4]: 0.5 ratio to HIV pol reference peptide; mean relative fluorescence intensity at 0.1 µM peptide [4]: 7.7 % of HIV pol reference peptide; mean relative fluorescence intensity at 1 µM peptide [4]: 30.8 % of HIV pol reference peptide; mean relative fluorescence intensity at 10 µM peptide [4]: 69.2 % of HIV pol reference peptide; mean relative fluorescence intensity at 100 µM peptide [4]: 76 % of HIV pol reference peptide
